Positions count from the first letter of the chain named. Names may count otherwise. One block for each binder: values may come before it.
Assays:
[1] = biological target: Purified Fab prepared from a papain-digested IgG mAb; test: dynamic binding capacity at 10% breakthrough, ligand multipoint-coupled to agarose beads (11.0 mg/ml), 1 mg/ml Fab, residence time 4 min
[2] = biological target: Purified Dab prepared from heat-treated E. coli supernatant; test: dynamic binding capacity at 10% breakthrough, ligand multipoint-coupled to agarose beads (11.0 mg/ml), 1 mg/ml Dab, residence time 4 min
[3] = biological target: human polyclonal IgG (Gammanorm) (human); test: SPR (Biacore), ligand amine-coupled to chip, 1 mg/ml human polyclonal IgG flowed; IgG binding signal left after 96 cycles of 10 min 100 mM NaOH
[4] = biological target: human polyclonal IgG (Gammanorm) (human); test: SPR (Biacore), ligand amine-coupled to chip, 1 mg/ml human polyclonal IgG flowed; IgG binding signal left after 100 cycles of 10 min 100 mM NaOH
[5] = biological target: human polyclonal IgG (Gammanorm) (human); test: SPR (Biacore), retained IgG binding capacity after 96 NaOH cycles, ratio to reference Protein L (itself)
[6] = biological target: human polyclonal IgG (Gammanorm) (human); test: SPR (Biacore), retained IgG binding capacity after 100 NaOH cycles, ratio to reference Protein L (itself)
[7] = biological target: Purified Fab prepared from a papain-digested IgG mAb; test: dynamic binding capacity at 10% breakthrough, ligand multipoint-coupled to agarose beads (9.5 mg/ml), 1 mg/ml Fab, residence time 4 min
[8] = biological target: Purified Dab prepared from heat-treated E. coli supernatant; test: dynamic binding capacity at 10% breakthrough, ligand multipoint-coupled to agarose beads (9.5 mg/ml), 1 mg/ml Dab, residence time 4 min
[9] = biological target: human polyclonal IgG (Gammanorm) (human); test: SPR (Biacore), retained IgG binding capacity after 96 NaOH cycles, ratio to reference Domain 3
[10] = biological target: Purified Dab prepared from heat-treated E. coli supernatant; test: dynamic binding capacity at 10% breakthrough, ligand multipoint-coupled to agarose beads (8.8 mg/ml), 1 mg/ml Dab, residence time 4 min
[11] = biological target: Purified Fab prepared from a papain-digested IgG mAb; test: dynamic binding capacity at 10% breakthrough, ligand multipoint-coupled to agarose beads (8.8 mg/ml), 1 mg/ml Fab, residence time 4 min
[12] = biological target: human polyclonal IgG (Gammanorm) (human); test: SPR (Biacore), retained IgG binding capacity after 96 NaOH cycles, ratio to reference Domain 3 (itself)
[13] = biological target: human polyclonal IgG (Gammanorm) (human); test: SPR (Biacore), retained IgG binding capacity after 96 NaOH cycles, ratio to reference Domain 3 (itself, second run)
[14] = biological target: human polyclonal IgG (Gammanorm) (human); test: SPR (Biacore), ligand amine-coupled to chip, 1 mg/ml human polyclonal IgG flowed; IgG binding signal left after 96 cycles of 10 min 100 mM NaOH (second run, reference for the Q19 mutants)

Retained capacity after 96 cycles (%) [3]: 28%
Retained capacity after 100 cycles (%) [4]: 23%
Sample/ref. ratio [5]: 1
Sample/ref. ratio [6]: 1
B2: Protein L (four kappa light chain-binding domains, with additional AIHNRA sequence at the N-terminus) (protein)
chain: AIHNRAKEETPETPETDSEEEVTIKANLIFANGSTQTAEFKGTFEKATSEAYAYADTLKKDNGEYTVDVADKGYTLNIKFAGKEKTPEEPKEEVTIKANLIYADGKTQTAEFKGTFEEATAEAYRYADALKKDNGEYTVDVADKGYTLNIKFAGKEKTPEEPKEEVTIKANLIYADGKTQTAEFKGTFEEATAEAYRYADLLAKENGKYTVDVADKGYTLNIKFAGKEKTPEEPKEEVTIKANLIYADGKTQTAEFKGTFAEATAEAYRYADLLAKENGKYTADLEDGGYTINIRFAGKKVDEKPEE

Sample/ref. ratio [12]: 1
Retained capacity after 96 cycles (%) [3]: 31%
Sample/ref. ratio [13]: 1
Retained capacity after 96 cycles (%) [14]: 28%
B6: Domain 3 (D3) of Peptostreptococcus magnus Protein L (protein)
chain: AQVPKEEVTIKANLIYADGKTQTAEFKGTFEEATAEAYRYADLLAKENGKYTVDVADKGYTLNIKFAGKEKTPEEC

Sample/ref. ratio [9]: 0.84
Retained capacity after 96 cycles (%) [3]: 26%
B8: Domain 4 (D4) of Peptostreptococcus magnus Protein L (protein)
chain: AQVPKEEVTIKANLIYADGKTQTAEFKGTFAEATAEAYRYADLLAKENGKYTADLEDGGYTINIRFAGKKVDEKPEEC

Further lines, the binder ahead of its results:

B1: D3(N10Q, N45A, N60Q)6 (designed binder)
chain: PKEEVTIKAQLIYADGKTQTAEFKGTFEEATAEAYRYADLLAKEAGKYTVDVADKGYTLQIKFAGKEKTPEEPKEEVTIKAQLIYADGKTQTAEFKGTFEEATAEAYRYADLLAKEAGKYTVDVADKGYTLQIKFAGKEKTPEEPKEEVTIKAQLIYADGKTQTAEFKGTFEEATAEAYRYADLLAKEAGKYTVDVADKGYTLQIKFAGKEKTPEEPKEEVTIKAQLIYADGKTQTAEFKGTFEEATAEAYRYADLLAKEAGKYTVDVADKGYTLQIKFAGKEKTPEEPKEEVTIKAQLIYADGKTQTAEFKGTFEEATAEAYRYADLLAKEAGKYTVDVADKGYTLQIKFAGKEKTPEEPKEEVTIKAQLIYADGKTQTAEFKGTFEEATAEAYRYADLLAKEAGKYTVDVADKGYTLQIKFAGKEKTPEE
QB10 Fab [1]: 21.1 mg/mL
QB10 Dab [2]: 16.7 mg/mL

B3: D3(N10Q, N45A, N60Q)2 (designed binder)
chain: PKEEVTIKAQLIYADGKTQTAEFKGTFEEATAEAYRYADLLAKEAGKYTVDVADKGYTLQIKFAGKEKTPEEPKEEVTIKAQLIYADGKTQTAEFKGTFEEATAEAYRYADLLAKEAGKYTVDVADKGYTLQIKFAGKEKTPEE
QB10 Fab [7]: 19.3 mg/mL
QB10 Dab [8]: 15.4 mg/mL

B4: Domain 1 (D1) of Peptostreptococcus magnus Protein L (protein)
chain: AQVSEEEVTIKANLIFANGSTQTAEFKGTFEKATSEAYAYADTLKKDNGEYTVDVADKGYTLNIKFAGKEKTPEEC
Sample/ref. ratio [9]: 0.42
Retained capacity after 96 cycles (%) [3]: 13%

B5: D3(N10Q, N45A, N60Q)4 (designed binder)
chain: PKEEVTIKAQLIYADGKTQTAEFKGTFEEATAEAYRYADLLAKEAGKYTVDVADKGYTLQIKFAGKEKTPEEPKEEVTIKAQLIYADGKTQTAEFKGTFEEATAEAYRYADLLAKEAGKYTVDVADKGYTLQIKFAGKEKTPEEPKEEVTIKAQLIYADGKTQTAEFKGTFEEATAEAYRYADLLAKEAGKYTVDVADKGYTLQIKFAGKEKTPEEPKEEVTIKAQLIYADGKTQTAEFKGTFEEATAEAYRYADLLAKEAGKYTVDVADKGYTLQIKFAGKEKTPEE
QB10 Dab [10]: 15.9 mg/mL
QB10 Fab [11]: 19.3 mg/mL

B7: Domain 2 (D2) of Protein L, variant with alanine in position 31 (protein)
chain: B6 chain with T34A, L43A, A45K, E47D, K50E
Sample/ref. ratio [9]: 0.71
Retained capacity after 96 cycles (%) [3]: 22%
